The target of the assay is T1, HLA-A*02:01 (peptide-receptive MHC class I molecule of the UV-ligand exchange assay) (human).
T1 construct: MHC monomer first loaded with a UV-sensitive peptide (not identified) that is cleaved by UV light and exchanged for the test peptide; captured on streptavidin plates
Description: UV-ligand exchange, anti-b2m ELISA; peptide exchange yield grade (>=10% = +; >=20% = ++; >=50 = +++; >=75% = ++++). The source says:
Candidate peptides for T cell based therapies according to the present invention were further tested for their MHC binding capacity (affinity). The individual peptide-MHC complexes were produced by UV-ligand exchange, where a UV-sensitive peptide is cleaved upon UV-irradiation, and exchanged with the peptide of interest as analyzed. Only peptide candidates that can effectively bind and stabilize the peptide-receptive MHC molecules prevent dissociation of the MHC complexes. To determine the yield of the exchange reaction, an ELISA was performed based on the detection of the light chain (β2m) of stabilized MHC complexes. The assay was performed as generally described in Rodenko et al. (Rodenko et al., 2006).
96 well MAXISorp plates (NUNC) were coated aver night with 2 ug/ml streptavidin in PBS at room temperature, washed 4× and blocked for 1 h at 37° C. in 2% BSA containing blocking buffer. Refolded HLA-A*02:01/MLA-001 monomers served as standards, covering the range of 15-500 ng/ml. Peptide-MHC monomers of the UV-exchange reaction were diluted 100 fold in blocking buffer. Samples were incubated for 1 h at 37° C., washed four times, incubated with 2 ug/ml HRP conjugated anti-02m for 1 h at 37° C., washed again and detected with TMB solution that is stopped with […]. Absorption was measured at 450 nm. Candidate peptides that show a high exchange yield (preferably higher than 50%, most preferred higher than 75%) are generally preferred for a generation and production of antibodies or fragments thereof, and/or T cell receptors or fragments thereof, as they show sufficient avidity to the MHC molecules and prevent dissociation of the MHC complexes.

B1: LVRDTQSGSL (SEQ ID NO: 39) (peptide)
peptide: LVRDTQSGSL
notes: synthetic peptide; source gene SERPINH1
B1 yielded a peptide exchange yield of 20 to 50%.

B2: GLMKDIVGA (SEQ ID NO: 49) (peptide)
peptide: GLMKDIVGA
notes: synthetic peptide; source gene KYNU
As to B2, the peptide exchange yield is 50 to 75%.

B3: ATGNDRKEAAENSL (SEQ ID NO: 44) (peptide)
peptide: ATGNDRKEAAENSL
notes: synthetic peptide; source gene YWHAE
In turn, B3 returned a peptide exchange yield of 50 to 75%.

B4: KVVGKDYLL (SEQ ID NO: 43) (peptide)
peptide: KVVGKDYLL
notes: synthetic peptide; source gene CAPZB
B4 had a peptide exchange yield of 10 to 20%.

B5: KLNDTYVNV (SEQ ID NO: 22) (peptide)
peptide: KLNDTYVNV
notes: synthetic peptide; source gene TMEM194A
The molecule B5 had a peptide exchange yield of 50 to 75%.

B6: IAAIRGFLV (SEQ ID NO: 38) (peptide)
peptide: IAAIRGFLV
notes: synthetic peptide; source gene ABHD11
For B6, the peptide exchange yield is 50 to 75%.

B7: NLREGDQLL (SEQ ID NO: 27) (peptide)
peptide: NLREGDQLL
notes: synthetic peptide; source gene AHNAK2
Turning to B7, the peptide exchange yield was 50 to 75%.

B8: SLNGNQVTV (SEQ ID NO: 30) (peptide)
peptide: SLNGNQVTV
notes: synthetic peptide; source gene QSER1
Turning to B8, the peptide exchange yield is 10 to 20%.

B9: LLANGVYAA (SEQ ID NO: 15) (peptide)
peptide: LLANGVYAA
notes: synthetic peptide; source gene ANO1
In turn, B9 returned a peptide exchange yield of 10 to 20%.

B10: IVREFLTAL (SEQ ID NO: 21) (peptide)
peptide: IVREFLTAL
notes: synthetic peptide; source gene CRCP
Molecule B10 returned a peptide exchange yield of 50 to 75%.

B11: KLFGHLTSA (SEQ ID NO: 51) (peptide)
peptide: KLFGHLTSA
notes: synthetic peptide; source gene PHTF2
Regarding B11, the peptide exchange yield fell in the range of 20 to 50%.

B12: LILESIPVV (SEQ ID NO: 58) (peptide)
peptide: LILESIPVV
notes: synthetic peptide; source gene MAPK6
Regarding B12, the peptide exchange yield lay within 20 to 50%.

B13: ALWLPTDSATV (SEQ ID NO: 11) (peptide)
peptide: ALWLPTDSATV
notes: synthetic peptide; source gene LAMB3
B13 displayed a peptide exchange yield of 50 to 75%.

B14: LLRFSQDNA (SEQ ID NO: 35) (peptide)
peptide: LLRFSQDNA
notes: synthetic peptide; source gene LAP3
B14 displayed a peptide exchange yield of 50 to 75%.

B15: LLFAGTMTV (SEQ ID NO: 24) (peptide)
peptide: LLFAGTMTV
notes: synthetic peptide; source gene CYP2S1
On to B15, for which the peptide exchange yield was in the range of 20 to 50%.

B16: TQTTHELTI (SEQ ID NO: 61) (peptide)
peptide: TQTTHELTI
notes: synthetic peptide; source gene PCBP1
In the case of B16, the peptide exchange yield lay within 50 to 75%.

B17: TASAITPSV (SEQ ID NO: 3) (peptide)
peptide: TASAITPSV
notes: synthetic peptide; source gene KRT5
Molecule B17 returned a peptide exchange yield of 50 to 75%.

B18: MLTELEKAL (SEQ ID NO: 45) (peptide)
peptide: MLTELEKAL
notes: synthetic peptide; source gene S100A8
Turning to B18, the peptide exchange yield was 20 to 50%.

B19: LLDEKVQSV (SEQ ID NO: 66) (peptide)
peptide: LLDEKVQSV
notes: synthetic peptide; source gene TSHZ3
The molecule B19 had a peptide exchange yield of 50 to 75%.

B20: TQTAVITRI (SEQ ID NO: 42) (peptide)
peptide: TQTAVITRI
notes: synthetic peptide; source gene FAM83D
Molecule B20 registered a peptide exchange yield of 10 to 20%.

B21: VLPKLYVKL (SEQ ID NO: 31) (peptide)
peptide: VLPKLYVKL
notes: synthetic peptide; source genes RPS26P11, RPS26, RPS26P28, RPS26P15, RPS26P25, RPS26P58
For the molecule B21, the peptide exchange yield was in the range of 20 to 50%.

B22: GLAPFLLNAV (SEQ ID NO: 19) (peptide)
peptide: GLAPFLLNAV
notes: synthetic peptide; source gene FAM115C
As to B22, the peptide exchange yield was in the range of 50 to 75%.

B23: GLTDVIRDV (SEQ ID NO: 64) (peptide)
peptide: GLTDVIRDV
notes: synthetic peptide; source gene FBXL18
With B23, the peptide exchange yield is no less than 75%.

B24: YTQPFSHYGQAL (SEQ ID NO: 37) (peptide)
peptide: YTQPFSHYGQAL
notes: synthetic peptide; source gene RNPEP
B24 had a peptide exchange yield of 50 to 75%.

B25: MISRTPEV (SEQ ID NO: 17) (peptide)
peptide: MISRTPEV
notes: synthetic peptide; source genes F7, IGHV4-31, IGHG1, IGHG2, IGHG3, IGHG4, IGHM
Take B25: the peptide exchange yield is 20 to 50%.

B26: VLAEGGEGV (SEQ ID NO: 16) (peptide)
peptide: VLAEGGEGV
notes: synthetic peptide; source gene PDPN
Turning to B26, the peptide exchange yield lay in the range of 50 to 75%.

B27: SLSPVILGV (SEQ ID NO: 13) (peptide)
peptide: SLSPVILGV
notes: synthetic peptide; source gene IL36RN
With B27, the peptide exchange yield is no less than 75%.

B28: SLYNLGGSKRISI (SEQ ID NO: 2) (peptide)
peptide: SLYNLGGSKRISI
notes: as for B17
On to B28, for which the peptide exchange yield is no less than 75%.

B29: LAYTLGVKQL (SEQ ID NO: 63) (peptide)
peptide: LAYTLGVKQL
notes: synthetic peptide; source genes EEF1A1P5, EEF1A1, EEF1A2
In turn, B29 returned a peptide exchange yield of 50 to 75%.

B30: VVMEELLKV (SEQ ID NO: 60) (peptide)
peptide: VVMEELLKV
notes: synthetic peptide; source gene CYFIP1
In turn, B30 yielded a peptide exchange yield of 20 to 50%.

B31: GAIDLLHNV (SEQ ID NO: 55) (peptide)
peptide: GAIDLLHNV
notes: synthetic peptide; source gene GBP5
B31 yielded a peptide exchange yield of 20 to 50%.

B32: GLAFSLYQA (SEQ ID NO: 40) (peptide)
peptide: GLAFSLYQA
notes: as for B1
Take B32: the peptide exchange yield is 20 to 50%.

B33: YTAQIGADIAL (SEQ ID NO: 46) (peptide)
peptide: YTAQIGADIAL
notes: synthetic peptide; source genes TPSB2, TPSAB1
In turn, B33 had a peptide exchange yield of 50 to 75%.

B34: SLDGTELQL (SEQ ID NO: 29) (peptide)
peptide: SLDGTELQL
notes: synthetic peptide; source gene TMEM102
Turning to B34, the peptide exchange yield lay in the range of 50 to 75%.

B35: VVVTGLTLV (SEQ ID NO: 53) (peptide)
peptide: VVVTGLTLV
notes: synthetic peptide; source gene ARHGDIA
With B35, the peptide exchange yield is 20 to 50%.

B36: GLASRILDA (SEQ ID NO: 12) (peptide)
peptide: GLASRILDA
notes: as for B13
B36 registered a peptide exchange yield of 50 to 75%.

B37: GLDVTSLRPFDL (SEQ ID NO: 33) (peptide)
peptide: GLDVTSLRPFDL
notes: synthetic peptide; source gene FLNA
B37: the peptide exchange yield fell in the range of 50 to 75%.

B38: FLLDQVQLGL (SEQ ID NO: 18) (peptide)
peptide: FLLDQVQLGL
notes: synthetic peptide; source gene TSPAN10
Regarding B38, the peptide exchange yield was in the range of 50 to 75%.

B39: VLASGFLTV (SEQ ID NO: 47) (peptide)
peptide: VLASGFLTV
notes: synthetic peptide; source gene TTPAL
For B39, the peptide exchange yield was no less than 75%.

B40: SMHQMLDQTL (SEQ ID NO: 48) (peptide)
peptide: SMHQMLDQTL
notes: synthetic peptide; source gene TPM1
In turn, B40 showed a peptide exchange yield of 20 to 50%.

B41: VAIGGVDGNVRL (SEQ ID NO: 52) (peptide)
peptide: VAIGGVDGNVRL
notes: synthetic peptide; source gene WDR1
As to B41, the peptide exchange yield lay in the range of 20 to 50%.

B42: GLAPNTPGKA (SEQ ID NO: 57) (peptide)
peptide: GLAPNTPGKA
notes: synthetic peptide; source gene PRC1
B42 yielded a peptide exchange yield of 50 to 75%.

B43: SLVSEQLEPA (SEQ ID NO: 34) (peptide)
peptide: SLVSEQLEPA
notes: synthetic peptide; source gene PKP3
As to B43, the peptide exchange yield is 50 to 75%.

B44: KLSDSATYL (SEQ ID NO: 23) (peptide)
peptide: KLSDSATYL
notes: synthetic peptide
Molecule B44 displayed a peptide exchange yield of 50 to 75%.

B45: YMLDIFHEV (SEQ ID NO: 32) (peptide)
peptide: YMLDIFHEV
notes: synthetic peptide; source gene HAS3
In turn, B45 registered a peptide exchange yield of 20 to 50%.

B46: LLSGDLIFL (SEQ ID NO: 6) (peptide)
peptide: LLSGDLIFL
notes: synthetic peptide; source gene GJB5
The molecule B46 registered a peptide exchange yield of 50 to 75%.

B47: YVVGGFLYQRL (SEQ ID NO: 65) (peptide)
peptide: YVVGGFLYQRL
notes: synthetic peptide; source gene M6PR
In turn, B47 yielded a peptide exchange yield of 50 to 75%.

B48: STYGGGLSV (SEQ ID NO: 1) (peptide)
peptide: STYGGGLSV
notes: synthetic peptide; source gene KRT14, KRT16
In turn, B48 returned a peptide exchange yield of 50 to 75%.

B49: SLLDTLREV (SEQ ID NO: 59) (peptide)
peptide: SLLDTLREV
notes: synthetic peptide; source gene PPP4R1
B49: the peptide exchange yield was in the range of 50 to 75%.

B50: ALVEVTEHV (SEQ ID NO: 56) (peptide)
peptide: ALVEVTEHV
notes: synthetic peptide; source gene TMEM132A
B50 came in with a peptide exchange yield of 20 to 50%.

B51: FLLRFSQDNA (SEQ ID NO: 36) (peptide)
peptide: FLLRFSQDNA
notes: as for B14
The molecule B51 displayed a peptide exchange yield of 20 to 50%.

B52: SIFEGLLSGV (SEQ ID NO: 7) (peptide)
peptide: SIFEGLLSGV
notes: as for B46
The molecule B52 showed a peptide exchange yield of 20 to 50%.

B53: GLESEELEPEEL (SEQ ID NO: 41) (peptide)
peptide: GLESEELEPEEL
notes: synthetic peptide; source gene PABPN1
With B53, the peptide exchange yield is 20 to 50%.

B54: ALYEYQPLQI (SEQ ID NO: 62) (peptide)
peptide: ALYEYQPLQI
notes: synthetic peptide; source gene MNAT1
B54 came in with a peptide exchange yield of 20 to 50%.

B55: RLPNAGTQV (SEQ ID NO: 14) (peptide)
peptide: RLPNAGTQV
notes: synthetic peptide; source gene ITGA6
In turn, B55 yielded a peptide exchange yield of no less than 75%.

B56: YQDLLNVKM (SEQ ID NO: 54) (peptide)
peptide: YQDLLNVKM
notes: synthetic peptide; source genes DES, NEFM, NEFH, NEFL, VIM, INA
Molecule B56 yielded a peptide exchange yield of 50 to 75%.

B57: MLAEKLLQA (SEQ ID NO: 26) (peptide)
peptide: MLAEKLLQA
notes: synthetic peptide; source gene FAT1
In turn, B57 showed a peptide exchange yield of 10 to 20%.

B58: LLPPPPPPA (SEQ ID NO: 25) (peptide)
peptide: LLPPPPPPA
notes: synthetic peptide; source gene ADAMTS2
As for B58, the peptide exchange yield was in the range of 50 to 75%.

B59: SLDGFTIQV (SEQ ID NO: 28) (peptide)
peptide: SLDGFTIQV
notes: synthetic peptide; source gene OAS2
B59 gave a peptide exchange yield of 20 to 50%.

B60: NLMASQPQL (SEQ ID NO: 5) (peptide)
peptide: NLMASQPQL
notes: synthetic peptide; source gene PKP1
Consider B60, for which the peptide exchange yield was in the range of 50 to 75%.

(Values after patent publication US20260028387A1 (published 2026).)
